Ends that are not written are not given here.
Target: PD-L1 (Homo sapiens, UniProt Q9NZQ7)
Test: Flow cytometry using patient tissues and whole blood
Assay type: cell-based
Parameters: Seven PD-L1 expressing NSCLC patient tissues were obtained from the MU OneHealth tissue bank; tissue MU OneHealth tissue bank; U.S. Biomax (TMA) LC1923; host or cells: FFPE placenta, seven NSCLC patient tissues, 192-case lung cancer tissue microarray, four Hodgkin's lymphoma cases
Method: Cases were evaluated using flow cytometry for suspected hematopoietic neoplasms. A portion of each fresh specimen was collected into RPMI. […] Any erythrocytes within the specimens were lysed with BD PharmLyse (San Jose, Calif.) and the specimens were washed with BD Staining Buffer with BSA (San Jose, Calif.). Each sample was evaluated using BD FACSCanto II, a three laser, eight-color flow cytometer (San Jose, Calif.) within 24 hours of collection. 50,000 events were collected for each sample. The expression data were analyzed using BD FACSDiva software, version 8.0 (San Jose, Calif.). Cases diagnosed as non-hematopoietic tumors were further subjected to evaluation with PDL-1 peptide if material was available combined with CK to identify the epithelial component. The cell suspensions were stained with 10 μl of BD Cytokeratin FITC (clone CAM5.2), 20 μl of Cy5-conjugated peptide solution, and 10 μl of BD Pharmingen CD274 PE (clone MIH1), incubated in the dark for 30 minutes, washed with BD Stain Buffer with BSA, and reconstituted to 500 μl with Stain Buffer with BSA in […] polystyrene tubes for analysis. The specimens were analyzed on the FACS Canto II using the same panel template, gating strategy, and collection events as the cell line specimens.
PD-L1 expression in patient tissues was analyzed using RK-10-Cy5 and compared to expression in MDA-MB-231 cells and a negative control of normal blood (FIG. 7A). The MFI of the MDA-MB-231 cells was 9,448, while the whole blood gave an MFI of −123. Squamous cell carcinoma and metastatic melanoma samples were investigated for PD-L1 expression using the previously mentioned MFIs as high and negative, respectively. The squamous cell carcinoma was shown as having an MFI of 107,808, while the melanoma sample gave an MFI of 1,250. […] Since […] is consistent with circulating tumor cells, it was thought that RK-10-Cy5 peptide could be used to detect CTCs. To see whether detection of low cell counts was possible, whole blood samples were spiked with MDA-MB-231 cells. MDA-MB-231 were diluted with whole blood, then treated with RK-10-Cy5 and cytokeratin before staining. These samples were also treated with a phycoerythrin-conjugated antibody (cd274) against PD-L1 to further verify PD-L1 detection. Positive signals were detected of cytokeratin and PD-L1 expression at low counts of ˜15 cells in 1 mL whole blood sample using both the peptide and the antibody (FIG. 7B).

Chain of PD-L1 (Q9NZQ7 19-290): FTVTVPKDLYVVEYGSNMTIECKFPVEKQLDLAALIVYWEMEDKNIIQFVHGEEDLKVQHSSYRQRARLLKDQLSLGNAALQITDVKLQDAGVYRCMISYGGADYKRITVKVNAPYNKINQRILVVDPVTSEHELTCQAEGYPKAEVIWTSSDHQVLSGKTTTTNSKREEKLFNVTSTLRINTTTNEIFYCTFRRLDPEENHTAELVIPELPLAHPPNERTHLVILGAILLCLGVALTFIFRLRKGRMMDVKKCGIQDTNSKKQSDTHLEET

- mean fluorescence intensity (MFI) (metastatic melanoma patient sample): 1,250
- mean fluorescence intensity (MFI) (normal whole blood (negative control), FIG. 7A): −123
- mean fluorescence intensity (MFI) (squamous cell carcinoma patient sample): 107,808
- low cell count at which positive cytokeratin and PD-L1 signals were detected (whole blood spiked with MDA-MB-231 cells, FIG. 7B): ~15 cells in 1 mL whole blood
Substance: Cy5-GSGSGSTYLCGAISLAPKAQIKESL [RK-10-Cy5]
